We go through one molecule from US20220340657A1 (L AND L BIO CO LTD NINGBO CHINA, published 2022).

Several values for one entry are separate records, joined by “and”; a condition that tells them apart may be missing. Identical values can stand only once. Like-named read-outs stand apart in the source and are kept apart here.

In test [1] the target is T1, human LAG-3-his (human, UniProt P18627 23-422).
T1 construct: range 23-422; also called hLAG-3-his; hLAG-3
T1 sequence: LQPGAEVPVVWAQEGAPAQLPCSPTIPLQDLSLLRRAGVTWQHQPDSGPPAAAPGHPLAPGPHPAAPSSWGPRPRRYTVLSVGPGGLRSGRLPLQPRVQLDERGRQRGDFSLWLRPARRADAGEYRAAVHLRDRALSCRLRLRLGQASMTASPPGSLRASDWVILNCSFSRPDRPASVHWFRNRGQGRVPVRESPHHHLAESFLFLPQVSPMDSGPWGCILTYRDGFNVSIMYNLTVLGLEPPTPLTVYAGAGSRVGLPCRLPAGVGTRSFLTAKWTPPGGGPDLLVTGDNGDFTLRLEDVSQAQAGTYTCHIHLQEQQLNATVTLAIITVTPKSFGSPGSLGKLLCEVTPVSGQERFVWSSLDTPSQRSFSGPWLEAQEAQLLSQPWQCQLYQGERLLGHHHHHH
In words: ELISA on coated human LAG-3, OD450 (Example 3, Example 13) [panel a]. (ELISA stands for enzyme-linked immunosorbent assay.)

Test [2] addresses T1, human LAG-3-his. The description is as above. This is another data set of the same source.
Test [3] has as its target T2, bio-LAG3-mFc (human, UniProt P18627 23-450, biotin-labelled).
T2 construct: also called hLAG-3
T2 sequence (looked up): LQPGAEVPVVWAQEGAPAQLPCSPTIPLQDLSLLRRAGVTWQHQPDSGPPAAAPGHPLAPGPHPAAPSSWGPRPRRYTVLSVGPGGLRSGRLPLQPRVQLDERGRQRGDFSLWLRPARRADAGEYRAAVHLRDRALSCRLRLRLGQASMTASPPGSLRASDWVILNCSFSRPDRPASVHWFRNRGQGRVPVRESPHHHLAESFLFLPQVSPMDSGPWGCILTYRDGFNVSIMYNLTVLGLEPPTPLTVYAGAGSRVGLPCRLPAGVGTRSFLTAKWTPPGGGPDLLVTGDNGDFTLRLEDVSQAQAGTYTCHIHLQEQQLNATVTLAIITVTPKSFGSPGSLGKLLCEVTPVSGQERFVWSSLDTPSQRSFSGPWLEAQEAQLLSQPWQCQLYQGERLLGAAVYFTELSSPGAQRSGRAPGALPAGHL
In words: blocking ELISA, LAG-3 on Daudi cells.

For test [4], the target named is T2, bio-LAG3-mFc. In words: blocking of LAG3 binding to Daudi cells, same experiment. The procedure: The Daudi cell line (ATCC, CCL-213) was expanded and seeded into 96-well microplate at a density of 2×10⁵ cells/well, and then centrifuged at 1600 rpm for 10 min; thereafter the cells were fixed with 100 μl/well of a fixative solution for immunostaining (Shanghai Beyotime Biotechnology Co., Ltd., Cat. No.: P0098) for half an hour at room temperature. After washing with PBS (BasalMedia Biology, Cat. No.: B320) once, 5% milk was added with 230 μl per well, and the microplate was incubated for 2 hours at 37° C. for blocking, then was washed three times with PBST. […] The microplate was then incubated for 1 hour at 37° C. and washed 5 times with PBST. 50 μl/well of 1:1000 diluted streptavidin-HRP secondary antibody (GenScript, Cat. No.: M00091) was added to the microplate and incubated for 1 hour at 37° C. After washing the microplate 5 times with PBST, 50 μl/well TMB (Surmodic, Cat. No.: TTMB-1000-01) was added to the microplate for color development, and 50 μl/well 1M H₂SO₄ was added to stop the reaction. The microplate was then read by a microplate reader (MuitiskanGo Thermo, model 511919200), and the data were analyzed using GraphPad prism 5.

The target of test [5] is T1, human LAG-3-his. In words: ELISA on coated human LAG-3, OD450 (Example 3, Example 13) [panel a]. This is another data set of the same source.
The target in test [6] is T1, human LAG-3-his. Described as above. The source holds these as a separate data set.

B1: humanized anti-human LAG-3 antibody Ab2317 (antibody, human IgG4 S228P, kappa, V domains shown)
VH: QVQLVQSGAEVKKPGASVKVSCKASGYTFTDYEMHWVKQAPGQGLEWIGGIDPETEGIAYNQKFRGRATLTADKSTSTAYMELRSLRSDDTAVYYCTNSNYYGGREAWFAYWGQGTLVTVSS
VL: DIQMTQSPSSLSASVGDRVTITCRASQDIGSSLNWYQQKPGKAPKRLIYATSSLDSGVPSRFSGSRSGSDFTLTISSLQPEDFATYYCLQYVTSPLTFGGGTKVEIKR
notes: LG2317 / LG2343, human kappa / hIgG4
As to B1, the “EC50 (read off the curve)” value with human LAG-3-his [1], with human LAG-3-his [2], in the test with human LAG-3-his [5] and with human LAG-3-his [6] was approximately 0.3 nM throughout. The “fold stronger blocking activity than Ref” value in the test with bio-LAG3-mFc [3] was not below 2 times. In addition, the IC50 (as a rule, the midpoint of a concentration-inhibition curve) in the test with bio-LAG3-mFc [4] is 9.78 nM and 28 nM.
